pKd: −log10 of the molar value.
Legend:
[1] = target: Arabidopsis cytosolic glyceraldehyde-3-phosphate dehydrogenase (GAPC1), recombinant, His-tagged (Arabidopsis thaliana) (UniProt P25858)
[2] = target: Arabidopsis cytosolic glyceraldehyde-3-phosphate dehydrogenase (GAPC1), recombinant, His-tagged (Arabidopsis thaliana) (UniProt P25858); experiment: nano-differential scanning fluorimetry (nanoDSF); about 0.8 ug protein per capillary in 50 mM Tris-HCl pH 8.0; ligands at 100 uM (cyclo(Tyr-Asp) also at 500 uM and 1 mM); ramp 2 °C/min, 20 to 90 °C; shift of the melting temperature against mock
[3] = target: human glyceraldehyde-3-phosphate dehydrogenase (GAPDH), recombinant, His-tagged (human) (UniProt P04406)
UniProt P04406, sequence (P04406 whole entry): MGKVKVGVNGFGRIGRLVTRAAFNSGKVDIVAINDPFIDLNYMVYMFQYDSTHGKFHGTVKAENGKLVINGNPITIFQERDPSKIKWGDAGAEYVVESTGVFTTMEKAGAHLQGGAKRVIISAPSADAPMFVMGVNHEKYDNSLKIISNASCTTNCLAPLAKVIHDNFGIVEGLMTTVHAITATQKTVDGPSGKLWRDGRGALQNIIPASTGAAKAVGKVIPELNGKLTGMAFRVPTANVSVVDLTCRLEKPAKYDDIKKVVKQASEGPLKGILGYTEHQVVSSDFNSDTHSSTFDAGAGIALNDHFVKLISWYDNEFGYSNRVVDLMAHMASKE

[4] = target: Arabidopsis cytosolic glyceraldehyde-3-phosphate dehydrogenase (GAPC1), recombinant, His-tagged (Arabidopsis thaliana) (UniProt P25858); experiment: MST; GAPC1 labelled on its His tag (RED-tris-NTA 2nd Generation), 50 nM; cyclo(His-Pro) titrated; 50 mM Tris-HCl pH 8.0 with 1.6 mM NAD+; premium capillaries, Monolith X; binding from the spectral shift A670/A650

UniProt P25858, sequence (P25858 whole entry): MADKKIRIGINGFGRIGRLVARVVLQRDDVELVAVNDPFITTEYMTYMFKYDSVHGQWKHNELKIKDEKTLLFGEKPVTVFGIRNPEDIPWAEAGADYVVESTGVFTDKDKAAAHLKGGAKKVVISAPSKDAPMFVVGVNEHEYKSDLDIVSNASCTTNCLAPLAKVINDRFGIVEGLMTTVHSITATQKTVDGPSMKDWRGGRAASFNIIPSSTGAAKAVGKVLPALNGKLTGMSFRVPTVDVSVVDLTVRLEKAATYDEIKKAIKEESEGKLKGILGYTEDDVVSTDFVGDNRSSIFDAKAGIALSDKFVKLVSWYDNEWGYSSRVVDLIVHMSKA

Substance: cyclo(Tyr-Asp), cyclo(L-tyrosyl-L-aspartic acid) (peptide)
- IC50 of inhibition of enzymatic activity [1]: 1500 µM

Substance: cyclo(His-Pro), cyclo(L-histidyl-L-proline) (peptide)
- shift of the melting temperature at 100 μM ligand [2]: > 4 °C
- IC50 of inhibition of GAPDH enzymatic activity [3]: 70 µM
- IC50 of inhibition of GAPC1 enzymatic activity (oxidation of glyceraldehyde-3-phosphate, reduction of NAD+ to NADH) [1]: 200 µM
- pKd [4]: 4.40

Reference: PMC12089766
